According to paper doi:10.1101/2025.05.29.656919 (bioRxiv, 2025):
Substitutions are numbered along the chain they refer to. Names may count otherwise. Blank lines part the entries; values can stand above or below the binder they belong to.

Key:
Assay in all cases: pull-down
[1] = molecular target: T1, Glutathione S-transferase-fused VDAC2 (Arabidopsis, UniProt Q9FJX3 1-276)
T1 sequence (looked up): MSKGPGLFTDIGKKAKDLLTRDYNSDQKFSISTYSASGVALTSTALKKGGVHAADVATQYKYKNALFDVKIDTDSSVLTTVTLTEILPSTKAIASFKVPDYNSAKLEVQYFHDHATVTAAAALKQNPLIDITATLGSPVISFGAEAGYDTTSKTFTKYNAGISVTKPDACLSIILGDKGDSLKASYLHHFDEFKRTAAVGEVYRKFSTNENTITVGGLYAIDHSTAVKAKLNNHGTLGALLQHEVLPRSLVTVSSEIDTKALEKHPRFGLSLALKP

[2] = molecular target: T2, Glutathione S-transferase-fused VDAC3 (Arabidopsis, UniProt Q9SMX3 1-274)
T2 sequence (looked up): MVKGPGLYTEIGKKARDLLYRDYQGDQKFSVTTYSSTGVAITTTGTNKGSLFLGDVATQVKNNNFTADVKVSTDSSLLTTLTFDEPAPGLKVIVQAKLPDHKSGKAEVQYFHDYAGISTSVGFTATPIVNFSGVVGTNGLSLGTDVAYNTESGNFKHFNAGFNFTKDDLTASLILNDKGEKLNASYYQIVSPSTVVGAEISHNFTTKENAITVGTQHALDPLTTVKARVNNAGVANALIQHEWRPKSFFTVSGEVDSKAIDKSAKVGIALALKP

[3] = molecular target: T3, Glutathione S-transferase-fused VDAC1 (Arabidopsis, UniProt Q9SRH5 1-276)
T3 sequence (looked up): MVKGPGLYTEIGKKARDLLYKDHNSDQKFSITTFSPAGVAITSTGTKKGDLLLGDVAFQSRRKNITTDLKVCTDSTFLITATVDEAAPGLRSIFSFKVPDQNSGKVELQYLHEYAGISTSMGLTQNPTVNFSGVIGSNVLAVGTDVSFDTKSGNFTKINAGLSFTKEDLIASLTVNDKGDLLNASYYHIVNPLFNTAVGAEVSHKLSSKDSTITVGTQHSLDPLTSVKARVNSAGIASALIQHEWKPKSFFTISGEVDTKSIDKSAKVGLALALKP

binding result [1]: binds
binding result [2]: binds
binding result [3]: binds
B1: 6×His-tagged ATG8e (natural protein, Arabidopsis, UniProt Q8S926 1-118, looked up)
chain: MNKGSIFKMDNDFEKRKAEAGRIREKYPDRIPVIVEKAEKSEVPNIDKKKYLVPSDLTVGQFVYVIRKRIKLSAEKAIFIFVDNVLPPTGELMSSVYEDKKDEDGFLYITYSGENTFG

binding result [1]: binds
binding result [2]: binds
binding result [3]: binds
B2: ATG8e with UDS mutation (I78A, F79A, I80A) (natural protein, Arabidopsis, UniProt Q8S926 1-118, looked up)
chain: B1 chain with I78A, F79A, I80A
